Data on 1 substance can be found in doi:10.1101/2023.08.30.554051.

The experiment addresses human skeletal myosin IIa subfragment-1 (S1), oligonucleotide-labeled, on DNA origami-based thick filament (human). The experiment in a line: high-speed atomic force microscopy.

As for “actin filament (from UniProt P68135 1-377) (natural protein)”, the duty ratio amounted to 0.87, the mean detachment time worked out at 0.17 s, the time constant of the attachment time worked out at 1.1 s and the time constant of the detachment time (fast) is 0.063 s. Besides, the time constant of the detachment time (slow) amounted to 0.68 s.
